The subject of data set [1] is cGS-PDE activity. Description: cGS-PDE activity of membrane and supernatant fractions of transfected COS-7 cells. Format: biochemical, bovine. The text has this: Transient expression of the CGS-PDE cDNA in COS-7 cells was accomplished as in Example I. A 4.2 kb fragment of p3CGS-5 was isolated using HindIII and NotI and was inserted into plasmid pCDM8, which had been digested with the same enzymes. The character of products produced in COS-7 cells transformed with the p3CGS-5/pCDM8 construct is discussed in Example V, infra.
For transient expression in COS-7 cells, a 3.8 kb fragment of pBBCGSPDE-7 was isolated using HindIII and NotI and inserted into plasmid pCDM8 which had been cut with HindIII and NotI restriction endonucleases. The recombinant pBBCGSPDE-7/CDM8 construct was used to transiently transfect COS-7 cells. The properties of the pBBCGSPDE-7/CDM8 construct and the p3CGS-5/CDM8 construct prepared in Example IV products were subsequently compared. Membrane and supernatant fractions were prepared from extracts of transfected COS-7 cells and assayed for cGS-PDE activity. […] However, a 10-fold greater percentage of total cGS-PDE activity was detected in membranes from COS-7 cell extracts transfected with the pBBCGSPDE-7/CDM8 construct than in membranes prepared from p3CGS-5/CDM8-transfected COS-7 cells.

Data set [2] has as its target calmodulin (Homo sapiens, UniProt P0DP23). As to conditions: cited from earlier work.
The subject of data set [3] is cAMP and cGMP hydrolysis. Description: PDE activity of homogenates of COS-7 cells transfected with 61 kDa CaM-PDE cDNA. As to conditions: COS-7 cell extracts. Type of data set: biochemical, bovine.
For data set [4], the system named is cAMP and cGMP hydrolysis. As to the kind of experiment: CaM-dependent PDE activity of homogenates of COS-7 cells transfected with 63 kDa CaM-PDE cDNA. To be noted: COS-7 cell homogenates. Format: biochemical, bovine. As for the experimental part:
COS cells were scraped from the plates and homogenized in a buffer containing 40 mM Tris-HCl (pH=7.5), 5 mM EDTA, 15 mM benzamidine, 15 mM beta-mercaptoethanol, 1 μg per ml pepstatin A and 1 μg per ml peupeptin using a Dounce homogenizer (1 ml per 100 mm plate). Homogenates were assayed for PDE activity according to the procedures of Hanson et al., Proc. Nat'l. Acad. Sci. U.S.A., 79:2788-2792 (1982), using [^3H]cGMP as the substrate. Reactions were carried out at 300 for 10 minutes in a buffer containing 20 mM Tris-HCl (pH=7.5), 20 mM imidazole (pH=7.5), 3 mM MgCl2, 15 mM Mg acetate, 0.2 mg per ml BSA and 1 μM ^3H-cAMP with either 2 mM EGTA or 0.2 mM CaCl2 and 4 μg per ml CaM. Assays were stopped by incubating the tubes in a 900 water bath for 1 minute. After cooling, 10 μl of 2.5 mg per ml snake venom was added to each assay and incubated at 370 for 5 minutes. […] Samples were counted for 1 minute using a Packard Model 1600TR scintillation counter. Specific cyclic nucleotide hydrolytic activity was expressed as picomoles cAMP or cGMP hydrolyzed per minute per mg protein. […]
COS-7 cells were transfected with the p12.3.a/CDM8 construct or mock transfected with the CDM8 vector alone using the DEAE-dextran method as described in Example 1. […] CaM-dependent and independent activities were determined as in Example 1.

B1: pBBCGSPDE-7/CDM8: expression product of bovine brain cGS-PDE cDNA (SEQ ID NO: 43) (protein)
chain: MGQACGHSILCRSQQYPAARPAEPRGQQVFLKPDEPPPPPQPCADSLQDALLSLGSVIDVAGLQQAVKEALSAVLPKVETVYTYLLDGESRLVCEEPPHELPQEGKVREAVISRKRLGCNGLGPSDLPGKPLARLVAPLAPDTQVLVIPLVDKEAGAVAAVILVHCGQLSDNEEWSLQAVEKHTLVALKRVQALQQRESSVAPEATQNPPEEAAGDQKGGVAYTDQDRKILQLCGELYDLDASSLQLKVLQYLQQETQASRCCLLLVSEDNLQLSCKVIGDKVLEEEISFPLTTGRLGQVVEDKKSIQLKDLTSEDMQQLQSMLGCEVQAMLCVPVISRATDQVVALACAFNKLGGDLFTDQDEHVIQHCFHYTSTVLTSTLAFQKEQKLKCECQALLQVAKNLFTHLDDVSVLLQEIITEARNLSNAEICSVFLLDQNELVAKVFDGGVVEDESYEIRIPADQGIAGHVATTGQILNIPDAYAHPLFYRGVDDSTGFRTRNILCFPIKNENQEVIGVAELVNKINGPWFSKFDEDLATAFSIYCGISIAHSLLYKKVNEAQYRSHLANEMMMYHMKVSDDEYTKLLHDGIQPVAAIDSNFASFTYTPRSLPEDDTSMAILSMLQDMNFINNYKIDCPTLARFCLMVKKGYRDPPYHNWMHAFSVSHFCYLLYKNLELTNYLEDMEIFALFISCMCHDLDHRGTNNSFQVASKSVLAALYSSEGSVMERHHFAQAIAILNTHGCNIFDHFSRKDYQRMLDLMRDIILATDLAHHLRIFKDLQKMAEVGYDRTNKQHHSLLLCLLMTSCDLSDQTKGWKTTRKIAELIYKEFFSQGDLEKAMGNRPMEMMDREKAYIPELQISFMEHIAMPIYKLLQDLFPKAAELYERVASNREHWTKVSHKFTIRGLPSNNSLDFLDEEYEVPDLDGARAPINGCCSLDAE
Take B1: the “percentage of total cGS-PDE activity detected in membranes, relative to p3CGS-5/CDM8-transfected cells” value in data set [1] (membranes from COS-7 cell extracts) turned out to be 10 fold. In addition, the “cGS-PDE activity in COS-7 cell extracts” value in data set [1] (most of the activity in supernatant fractions) is on record as “produced cGS-PDE activities”.

B2: 59 kDa isozyme: 59 kDa CaM-PDE isozyme isolated from bovine heart (protein, UniProt P14100 1-530, looked up)
Dual specificity …: MGSTATETEELENTTFKYLIGEQTEKMWQRLKGILRCLVKQLEKGDVNVIDLKKNIEYAASVLEAVYIDETRRLLDTDDELSDIQSDSVPSEVRDWLASTFTRKMGMMKKKSEEKPRFRSIVHVVQAGIFVERMYRKSYHMVGLAYPEAVIVTLKDVDKWSFDVFALNEASGEHSLKFMIYELFTRYDLINRFKIPVSCLIAFAEALEVGYSKYKNPYHNLIHAADVTQTVHYIMLHTGIMHWLTELEILAMVFAAAIHDYEHTGTTNNFHIQTRSDVAILYNDRSVLENHHVSAAYRLMQEEEMNVLINLSKDDWRDLRNLVIEMVLSTDMSGHFQQIKNIRNSLQQPEGLDKAKTMSLILHAADISHPAKSWKLHHRWTMALMEEFFLQGDKEAELGLPFSPLCDRKSTMVAQSQIGFIDFIVEPTFSLLTDSTEKIIIPLIEEDSKTKTPSYGASRRSNMKGTTNDGTYSPDYSLASVDLKSFKNSLVDIIQQNKERWKELAAQGEPDPHKNSDLVNAEEKHAETHS
With B2, in data set [2], the “affinity for calmodulin relative to the 61 kDa brain isozyme” value is listed as 10-20 fold.

B3: pCAM-40: expression product of plasmid pCAM-40, full length bovine brain 61 kDa CaM-PDE (SEQ ID NO: 6) (protein)
chain: MGSTATETEELENTTFKYLIGEQTEKMWQRLKGILRCLVKQLEKGDVNVIDLKKNIEYAASVLEAVYIDETRRLLDTDDELSDIQSDSVPSEVRDWLASTFTRKMGMMKKKSEEKPRFRSIVHVVQAGIFVERMYRKSYHMVGLAYPEAVIVTLKDVDKWSFDVFALNEASGEHSLKFMIYELFTRYDLINRFKIPVSCLIAFAEALEVGYSKYKNPYHNLIHAADVTQTVHYIMLHTGIMHWLTELEILAMVFAAAIHDYEHTGTTNNFHIQTRSDVAILYNDRSVLENHHVSAAYRLMQEEEMNVLINLSKDDWRDLRNLVIEMVLSTDMSGHFQQIKNIRNSLQQPEGLDKAKTMSLILHAADISHPAKSWKLHHRWTMALMEEFFLQGDKEAELGLPFSPLCDRKSTMVAQSQIGFIDFIVEPTFSLLTDSTEKIIIPLIEEDSKTKTPSYGASRRSNMKGTTNDGTYSPDYSLASVDLKSFKNSLVDIIQQNKERWKELAAQGEPDPHKNSDLVNAEEKHAETHS
Turning to B3, the “cAMP and cGMP hydrolytic activities compared to mock transfected cells” value in data set [3] (in the presence of EGTA) is reported as “significantly greater”. Besides, in data set [3] (in the presence of calcium and CaM), the “effect of calcium and CaM on cAMP and cGMP hydrolysis” value was “stimulation”.

B4: p12.3.a: expression product of bovine brain 63 kDa CaM-PDE cDNA clone (SEQ ID NO: 27) (protein)
chain: MELSPRSPPEMLESDCPSPLELKSAPSKKMWIKLRSLLRYMVKQLENGEVNIEELKKNLEYTASLLEAVYIDETRQILDTEDELQELRSDAVPSEVRDWLASTFTQQTRAKGPSEEKPKFRSIVHAVQAGIFVERMFRRTYTSVGPTYSTAVLNCLKNVDLWCFDVFSLNRAADDHALRTIVFELLTRHNLISRFKIPTVFLMTFLDALETGYGKYKNPYHNQIHAADVTQTVHCFLLRTGMVHCLSEIEVLAIIFAAAIHDYEHTGTTNSFHIQTKSECAILYNDRSVLENHHISSVFRMMQDDEMNIFINLTKDEFVELRALVIEMVLATDMSCHFQQVKSMKTALQQLERIDKSKALSLLLHAADISHPTKQWSVHSRWTKALMEEFFRQGDKEAELGLPFSPLCDRTSTLVAQSQIGFIDFIVEPTFSVLTDVAEKSVQPTGDDDSKSKNQPSFQWRQPSLDVEVGDPNPDVVSFRSTWTKYIQENKQKWKERAASGITNQMSIDELSPCEEEAPASPAEDEHNQNGNLD
In the case of B4, in data set [4], the “increase in CaM-stimulated cAMP phosphodiesterase activity over basal levels” value came to 15 fold and the “increase in CaM-stimulated cGMP phosphodiesterase activity over basal levels” value is listed as 12 fold.

The values are drawn from patent US6642040B2, “Human cGMP-stimulated cyclic nucleotide phosphodiesterase” (The Board of Regents of the University of Washington, priority 1991, dated 2003).
